Experimental data taken from patent US20250289894A1 (MORPHIC THERAPEUTIC, published 2025).
Residue numbers refer to the chain shown, from its start. Like-named read-outs stand apart in the source and are kept apart here.

B1: Ab24 (antibody, human IgG1, kappa, L234A L235A)
heavy: EVQLVQSGAEVKKPGSSVKVSCKASGYSFTRYWMHWVRQAPGQGLEWIGKIDPSDSETRLNQEFRDRATLTVDKSTSTAYMELSSLRSEDTAVYYCARGGYFGREWYYDVWGQGTLVTVSSASTKGPSVFPLAPSSKSTSGGTAALGCLVKDYFPEPVTVSWNSGALTSGVHTFPAVLQSSGLYSLSSVVTVPSSSLGTQTYICNVNHKPSNTKVDKKVEPKSCDKTHTCPPCPAPEAAGGPSVFLFPPKPKDTLMISRTPEVTCVVVDVSHEDPEVKFNWYVDGVEVHNAKTKPREEQYNSTYRVVSVLTVLHQDWLNGKEYKCKVSNKALAAPIEKTISKAKGQPREPQVYTLPPSRDELTKNQVSLTCLVKGFYPSDIAVEWESNGQPENNYKTTPPVLDSDGSFFLYSKLTVDKSRWQQGNVFSCSVLHEALHSHYTQKSLSLSPG
light: DIVMTQSPLSLPVTPGEPASISCRSSQSLVHRNGNTYLHWYLQKPGQSPQLLIYEVSNRAAGVPDRFSGSGSGTDFTLKISRVEAEDVGVYFCSQSTHVPWTFGGGTKLEIKRTVAAPSVFIFPPSDEQLKSGTASVVCLLNNFYPREAKVQWKVDNALQSGNSQESVTEQDSKDSTYSLSSTLTLSKADYEKHKVYACEVTHQGLSSPVTKSFNRGEC
B2: Ab25 (antibody, human IgG1, kappa, L234A L235A)
heavy: B1 heavy with M256Y, S258T, T260E, L432M, S438N
light: B1 light
notes: same variable domains as Ab24
B3: Ab26 (antibody, human IgG1, kappa, L234A L235A, V domains shown)
VH: EVQLVQSGAEVKKPGSSVKVSCKASGYSFTRYWMHWVRQAPGQGLEWIGKIDPSDSETRLNQEFRDRATLTVDKSTSTAYMELSSLRSEDTAVYYCARGGYFGEEWYHDVWGQGTLVTVSS
VL: DIVMTQSPLSLPVTPGEPASISCRSSQSLVHRNGNTYLHWYLQKPGQSPQLLIYEVSNRFTGVPDRFSGSGSGTDFTLKISRVEAEDVGVYFCAQSTQLPYTFGGGTKLEIKR
B4: Ab24/Ab25 (antibody, V domains shown)
VH: B3 VH with E104R, H108Y
VL: DIVMTQSPLSLPVTPGEPASISCRSSQSLVHRNGNTYLHWYLQKPGQSPQLLIYEVSNRAAGVPDRFSGSGSGTDFTLKISRVEAEDVGVYFCSQSTHVPWTFGGGTKLEIK
B5: Ab32 (antibody, human IgG1, V domains shown)
VH: B3 VH with E105Q
VL: B4 VL with A61S
B6: Ab26/Ab27 (antibody, V domains shown)
VH: B3 VH
VL: B4 VL with A60F, A61T, S94A, H98Q, V99L, W101Y
B7: Ab30 (antibody, human IgG1, V domains shown)
VH: B3 VH with E105G
VL: B4 VL with N58K, A61S, S94A, T97I, H98Q
B8: Ab34 (antibody, human IgG1, V domains shown)
VH: B3 VH with E105T
VL: B4 VL with N58H, A61S
B9: Ab33 (antibody, human IgG1, V domains shown)
VH: B3 VH with E104V, E105G, H108N
VL: B4 VL with A60V, A61P
B10: Ab37 (antibody, human IgG1, V domains shown)
VH: B3 VH with E105K
VL: B4 VL with E55G, A60F, S94A, H98Q, V99L, W101Y
B11: Ab35 (antibody, human IgG1, V domains shown)
VH: B3 VH with E105N
VL: B4 VL with A60Y, A61S, S94A, T97I, H98Q
B12: AB-P (antibody, V domains shown)
VH: B3 VH with E1Q, E105G, H108F
VL: B4 VL with I2V, E55K, A60F, A61S
B13: Ab41 (antibody, human IgG1, V domains shown)
VH: B3 VH with E105Q
VL: B4 VL with N58K, A60F, A61S, S94A, T97I, H98Q
B14: Ab31 (antibody, human IgG1, V domains shown)
VH: B3 VH with E104R, E105Q, H108F
VL: B4 VL with A61S
B15: Ab40 (antibody, human IgG1, V domains shown)
VH: B3 VH
VL: B4 VL with V56G, N58K, A60F, A61S
B16: Ab38 (antibody, human IgG1, V domains shown)
VH: B3 VH with H108N
VL: B4 VL with E55K, A61S
B17: Ab39 (antibody, human IgG1, V domains shown)
VH: B3 VH
VL: B4 VL with E55K, A61S
B18: Ab42 (antibody, human IgG1, V domains shown)
VH: B3 VH with E104R, E105Q, H108F
VL: B4 VL with V56G, N58K, A60F, A61S, S94A, H98Q, V99L, W101Y
B19: Ab36 (antibody, human IgG1, V domains shown)
VH: B3 VH with E105K
VL: B4 VL with N58H, A60F, A61P, S94A, H98Q, V99L, W101Y

What was measured:
Human α7β1 (human) [1] = target: Human α7β1 (human) (UniProt Q13683); assay: cell-based or functional assay
Human α7β1 (human) [2] = target: Human α7β1 (human) (UniProt Q13683); assay: cell-based or functional assay; remark: listed apart in the source
Human a7 Genu Calf 1-2 = target: T1, Human a7 Genu Calf 1-2 (human, UniProt Q13683 679-1078, limits assumed); assay: SPR
T1 construct: domain: Genu Calf 1-2
T1 sequence (looked up): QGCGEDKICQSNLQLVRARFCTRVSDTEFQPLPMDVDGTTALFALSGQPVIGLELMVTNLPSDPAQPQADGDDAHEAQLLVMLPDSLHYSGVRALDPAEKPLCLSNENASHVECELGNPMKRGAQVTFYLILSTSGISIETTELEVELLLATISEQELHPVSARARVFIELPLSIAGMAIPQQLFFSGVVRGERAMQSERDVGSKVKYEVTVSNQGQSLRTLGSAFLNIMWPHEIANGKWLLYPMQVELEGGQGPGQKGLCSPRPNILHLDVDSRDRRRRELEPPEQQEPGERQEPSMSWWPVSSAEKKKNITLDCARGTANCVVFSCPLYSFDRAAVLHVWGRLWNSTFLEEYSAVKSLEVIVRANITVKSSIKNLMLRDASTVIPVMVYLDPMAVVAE

Human a7b1 Ecto (X2B) = target: T2, Human a7b1 Ecto (X2B) (human, UniProt P05556 21-728); assay: SPR
T2 construct: extracellular domain

[3] = target: Human α7β1 (human), Q13683; assay: cell-based or functional assay

Molecule	Kd (Human a7 Genu Calf 1-2) [nM]	Kd (Human a7b1 Ecto (X2B)) [nM]	also measured
Isotype Control (antibody)	–	–	EC50 (nM), ECIS, DMD-1 myoblast cells (control row) (Human α7β1 (human) [1]): 38.1 nM; EC50 (nM), ECIS, DMD-2 myoblast cells (control row) (Human α7β1 (human) [1]): 8.7 nM; EC50 (nM), ECIS, Non-DMD myoblast cells (control row) (Human α7β1 (human) [1]): 8.1 nM; Emax (% of RefAb1), ECIS, DMD-1 myoblast cells (control row) (Human α7β1 (human) [1]): 59 % of RefAb1; Emax (% of RefAb1), ECIS, DMD-2 myoblast cells (control row) (Human α7β1 (human) [1]): 39 % of RefAb1; Emax (% of RefAb1), ECIS, Non-DMD myoblast cells (control row) (Human α7β1 (human) [1]): 35 % of RefAb1
TS2/16 antibody	–	–	EC50 (nm), a7b1 activation assay (Human α7β1 (human) [2]): 1.97 nM; EC50 (ug/mL), a7b1 activation assay (Human α7β1 (human) [2]): 0.3 µg/mL; Emax (F.C.), a7b1 activation assay (Human α7β1 (human) [2]): 2.09 F.C.; EC50 (nM), a7b1 activation assay (Human α7β1 (human) [1]): 2.07 nM; EC50 (ug/mL), a7b1 activation assay (Human α7β1 (human) [1]): 0.31 µg/mL; Emax (% TS2/16), a7b1 activation assay (Human α7β1 (human) [1]): 100 % TS2/16; Emax (F.C.), a7b1 activation assay (Human α7β1 (human) [1]): 2.34 F.C.
B1	0.1	2.4	–
B2	0.3	3.4	–
B3	0.3	2.2	–
B4	–	–	EC50 (nM), a7b1 activation assay [3]: 1.86 nM; EC50 (ug/mL), a7b1 activation assay [3]: 0.28 µg/mL; Emax (% TS2/16), a7b1 activation assay [3]: 97.9 % TS2/16; Emax (F.C.), a7b1 activation assay (9EG7 staining, human iPSC cardiomyocytes) [3]: 2.29 F.C.
B5	1.53	–	–
B6	–	–	EC50 (nm), a7b1 activation assay [3]: 2.88 nM; EC50 (ug/mL), a7b1 activation assay [3]: 0.43 µg/mL; Emax (% TS2/16), a7b1 activation assay [3]: 86.3 % TS2/16; Emax (F.C.), a7b1 activation assay [3]: 1.8 F.C.
B7	0.57	3.99	–
B8	1.35	–	–
B9	2.88	–	–
B10	1.43	–	–
B11	0.54	4.47	–
B12	16.4	63.7	–
B13	0.71	3.88	–
B14	2.53	–	–
B15	0.94	–	–
B16	4.44	–	–
B17	1.57	–	–
B18	5.7	–	–
B19	1.33	–	–
